Results on two molecules are retold here after US20240261333A1 (published 2024).

Holding throughout (assay): co-IP with anti-FLAG, N-FLAG B3GNT2, mass spectrometry
Experiment [1] has as its target T1, GEMIN4 (human, UniProt P57678 1-1058).
T1 construct: also called NP_056536.2 (+2)
T1 sequence (looked up): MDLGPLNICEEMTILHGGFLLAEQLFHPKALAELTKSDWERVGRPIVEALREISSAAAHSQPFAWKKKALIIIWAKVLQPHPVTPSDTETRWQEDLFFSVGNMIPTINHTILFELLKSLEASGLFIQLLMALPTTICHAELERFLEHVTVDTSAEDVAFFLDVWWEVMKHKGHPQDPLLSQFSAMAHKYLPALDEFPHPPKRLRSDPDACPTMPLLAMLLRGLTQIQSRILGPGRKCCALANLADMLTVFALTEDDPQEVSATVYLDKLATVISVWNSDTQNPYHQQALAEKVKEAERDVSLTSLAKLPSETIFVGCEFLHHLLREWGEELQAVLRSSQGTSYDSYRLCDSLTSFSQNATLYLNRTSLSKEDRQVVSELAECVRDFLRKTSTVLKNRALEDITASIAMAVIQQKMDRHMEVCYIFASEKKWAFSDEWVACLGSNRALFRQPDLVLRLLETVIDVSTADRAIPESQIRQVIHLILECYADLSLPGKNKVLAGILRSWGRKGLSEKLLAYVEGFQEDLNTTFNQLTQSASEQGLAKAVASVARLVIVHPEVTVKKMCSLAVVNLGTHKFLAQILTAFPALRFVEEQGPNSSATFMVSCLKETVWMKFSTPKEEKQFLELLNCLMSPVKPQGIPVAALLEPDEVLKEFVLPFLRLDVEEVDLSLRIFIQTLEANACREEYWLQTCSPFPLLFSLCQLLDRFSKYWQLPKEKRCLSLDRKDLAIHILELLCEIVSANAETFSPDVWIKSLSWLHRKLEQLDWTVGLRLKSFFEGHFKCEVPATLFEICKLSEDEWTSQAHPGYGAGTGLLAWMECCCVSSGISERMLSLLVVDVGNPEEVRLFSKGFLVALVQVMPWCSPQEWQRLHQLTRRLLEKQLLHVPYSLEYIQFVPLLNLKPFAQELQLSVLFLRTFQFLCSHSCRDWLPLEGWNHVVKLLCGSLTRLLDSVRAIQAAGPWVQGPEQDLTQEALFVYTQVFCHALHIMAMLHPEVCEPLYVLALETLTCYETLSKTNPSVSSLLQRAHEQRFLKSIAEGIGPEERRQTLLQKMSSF

The target in experiment [2] is T2, YBX1 (human, UniProt P67809 2-324).
T2 construct: also called NP_004550.2

The target of experiment [3] is T3, CALML5 (human, UniProt Q9NZT1 2-146).
T3 construct: also called NP_059118.2
T3 sequence (looked up): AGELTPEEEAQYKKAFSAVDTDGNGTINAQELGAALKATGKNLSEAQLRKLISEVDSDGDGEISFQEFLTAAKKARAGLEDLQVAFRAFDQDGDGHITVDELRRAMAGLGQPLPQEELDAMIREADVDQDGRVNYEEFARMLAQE

Experiment [4] has as its target T4, JUP (human, UniProt P14923 1-745).
T4 construct: also called NP_001339702.1
T4 sequence (looked up): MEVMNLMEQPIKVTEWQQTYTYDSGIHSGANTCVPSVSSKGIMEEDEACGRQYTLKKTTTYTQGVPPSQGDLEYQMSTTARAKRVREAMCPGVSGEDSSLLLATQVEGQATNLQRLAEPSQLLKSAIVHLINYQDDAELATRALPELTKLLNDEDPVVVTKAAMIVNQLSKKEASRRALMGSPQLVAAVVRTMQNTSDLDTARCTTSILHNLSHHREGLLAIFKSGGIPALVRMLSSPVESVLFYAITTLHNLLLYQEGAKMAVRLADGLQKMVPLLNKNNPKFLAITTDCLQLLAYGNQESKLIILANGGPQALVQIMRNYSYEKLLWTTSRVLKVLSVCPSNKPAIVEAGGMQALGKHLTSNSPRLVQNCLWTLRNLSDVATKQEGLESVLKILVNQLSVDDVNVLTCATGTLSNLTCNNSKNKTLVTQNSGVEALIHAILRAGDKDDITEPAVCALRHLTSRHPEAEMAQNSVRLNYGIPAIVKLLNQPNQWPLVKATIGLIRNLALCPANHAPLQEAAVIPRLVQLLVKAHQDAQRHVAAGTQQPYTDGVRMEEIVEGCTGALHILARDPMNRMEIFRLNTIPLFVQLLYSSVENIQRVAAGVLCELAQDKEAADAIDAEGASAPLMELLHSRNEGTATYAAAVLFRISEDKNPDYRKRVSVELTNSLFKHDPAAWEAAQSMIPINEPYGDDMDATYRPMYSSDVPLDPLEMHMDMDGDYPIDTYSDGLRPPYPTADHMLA

T2 sequence (P67809 2-324 limits assumed): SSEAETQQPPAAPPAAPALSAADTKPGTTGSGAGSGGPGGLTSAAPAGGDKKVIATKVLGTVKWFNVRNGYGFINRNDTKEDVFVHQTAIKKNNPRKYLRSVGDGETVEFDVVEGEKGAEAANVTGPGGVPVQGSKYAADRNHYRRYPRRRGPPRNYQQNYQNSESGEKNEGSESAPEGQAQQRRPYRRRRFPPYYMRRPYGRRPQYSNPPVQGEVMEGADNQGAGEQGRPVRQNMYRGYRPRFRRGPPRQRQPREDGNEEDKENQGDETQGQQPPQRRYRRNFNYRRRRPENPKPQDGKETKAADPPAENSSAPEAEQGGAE

B1: N-terminal FLAG tagged B3GNT2 (enzyme, human, UniProt Q9NY97 1-397, looked up)
chain: MSVGRRRIKLLGILMMANVFIYFIMEVSKSSSQEKNGKGEVIIPKEKFWKISTPPEAYWNREQEKLNRQYNPILSMLTNQTGEAGRLSNISHLNYCEPDLRVTSVVTGFNNLPDRFKDFLLYLRCRNYSLLIDQPDKCAKKPFLLLAIKSLTPHFARRQAIRESWGQESNAGNQTVVRVFLLGQTPPEDNHPDLSDMLKFESEKHQDILMWNYRDTFFNLSLKEVLFLRWVSTSCPDTEFVFKGDDDVFVNTHHILNYLNSLSKTKAKDLFIGDVIHNAGPHRDKKLKYYIPEVVYSGLYPPYAGGGGFLYSGHLALRLYHITDQVHLYPIDDVYTGMCLQKLGLVPEKHKGFRTFDIEEKNKNNICSYVDLMLVHSRKPQEMIDIWSQLQSAHLKC
notes: FLAG-tagged ORF overexpressed in cells; pulled down from lysate with mouse anti-FLAG; also called N-FLAG B3GNT2; N-term FLAG; not shown: N-terminal FLAG tag
On to B1, for which the “co-IP mass spectrometry count” value is 0 in experiment [1], 2 in experiment [2] and 0 in experiment [3].

B2: N-terminal FLAG tagged B3GNT2 (enzyme, human, UniProt Q9NY97 1-397, looked up)
chain: B1 chain
notes: FLAG-tagged ORF overexpressed in A375 cells; pulled down from the lysate with mouse anti-FLAG; also called N-FLAG B3GNT2; N-term FLAG; not shown: N-terminal FLAG tag
In the case of B2, the “co-IP/MS count, N-term FLAG” value in experiment [4] stood at 47.
